Columns and labels:
[1] = system: VEGF-induced proliferation of HUVEC cells; assay: HUVEC proliferation assay; assay type: cell-based, human; conditions: hVEGF 5 ng/ml, Alamar Blue on day 7
Method: FIG. 3. Inhibition of VEGF-induced HUVEC proliferation by anti-VEGF/anti-DLL4 bispecific antibodies. Fluorescence intensity is read using an excitation wavelength of 530 nm and an emission wavelength of 590. 219R45-MB-21M18 (-●-); 219R45-MB-21R79 (-▴-); 219R45 (-▪-); Medium with no VEGF (-⋄-).
HUVEC cells were obtained from Lonza (Walkersville, Md.) and cultured in growth media (M199, 10% heat-inactivated FBS (HI-FBS), 50 μg/ml EGS, 1X heparin, 1 mM L-glutamine). For the HUVEC proliferation assay, a 96-well plate was pre-coated with 50 μl of 10 μg/ml rat tail collagen type I solution (collagen I in 0.02N acetic acid) and incubated at 4° C. overnight. After incubation, the plate was thoroughly aspirated to remove unbound collagen I solution and washed once with 200 μl DPBS. The HUVEC cells were removed from the surface of the growth flasks using an endothelial cell subclone reagent and centrifuged at 1200 rpm for 5 minutes at 4° C. The cells were resuspended in starvation/assay medium (M199 and 2% HI-FBS, 1× heparin, 5 U/ml heparin-glutamine) at a density of 10^5 cells/ml. The cells were seeded into the collagen-coated assay plate at 5000 cells/well, 50 ul/well. The cells were incubated for 3 hours at 37° C., washed one time, refed with 100 ul assay media, and incubated overnight at 37° C. The next day, bispecific antibodies 219R45-MB-21M18, 219R45-MB-21R79, parental antibody 219R45, or control antibody LZ1 were prepared in a mixture with human VEGF (R&D Biosystems, Minneapolis, Minn.). The antibodies were serially diluted 5-fold from […] to 0.25 nM in assay buffer in combination with hVEGF (final concentration 5 ng/ml). The mixture was pre-incubated at 37° C. for 2 hours. The medium was removed from the assay plate, and 100 μl of the antibody/hVEGF mixture was added to each well. […] The plate was read with a SpectraMax M5e Microplate reader (Molecular Devices, Sunnyvale CA) using a excitation wavelength of […] and an emission wavelength of 590 nm.

[2] = biological target: human DLL4-Fc (Homo sapiens, UniProt Q9NR61); assay: Biacore binding affinity (KD) to human DLL4; conditions: ratio of KD values
Method: The KDs of parental antibodies anti-VEGF 219R45 (IgG format), anti-DLL4 21R79 (IgG format), anti-DLL4 21M18 (IgG format) and bispecific antibodies 219R45-MB-21M18 and 219R45-MB-21R79 were determined using a Biacore 2000 system from Biacore LifeSciences (GE Healthcare). Recombinant human DLL4-Fc or mouse DLL4-Fc proteins were immobilized on CM5 carboxyl chips using standard amine-based chemistry (NHS/EDC) and blocked with ethanolamine. Recombinant human VEGF165 or mouse VEGF165 were biotinylated and immobilized on streptavidin chips. The antibodies were serially diluted 2-fold from 100 nM to 0.78 nM in HBS-P (0.01M HEPES pH7.4, 0.15M NaCl, 0.005% v/v Polysorbate 20). For each antibody, all 8 dilutions were sequentially injected over a specific chip. Kinetic data were collected over time and were fit using the simultaneous global fit equation to yield affinity constants (KD values) for each bispecific antibody.
Several additional anti-DLL4 antibodies were identified that had binding affinities intermediate to the KDs of 21M18 and 21R79. Two of these anti-DLL4 antibodies were used to produce anti-VEGF/anti-DLL4 bispecific antibodies 219R45-MB-21R75 and 219R45-MB-21R83. Using the Biacore 2000 system as described above, the KDs of the bispecific antibodies 219R45-MB-21R75 and 219R45-MB-21R83 to human DLL4 were determined.

[3] = system: OMP-C8 colon tumor; assay: OMP-C8 colon tumor growth in vivo; parameters: species or system NOD/SCID mice
Method: FIGS. 11A and 11B. Inhibition of colon tumor growth in vivo by anti-VEGF/anti-DLL4 bispecific antibodies. OMP-C8 colon tumor cells were injected subcutaneously into NOD/SCID mice. Mice were treated with control antibody (-▪-), anti-VEGF antibody bevacizumab (-▴-), or anti-VEGF/anti-DLL4 bispecific antibodies 219R45-MB-21M18 (-⋄-), 219R45-MB-21R75 (-●-), 219R45-MB-21R79 (-∘-), or 219R45-MB-21R83 (-▾-). Mice were treated with antibodies as single agents (FIG. 11A) or in combination with irinotecan (FIG. 11B). Antibodies were administered intraperitoneally at a dose of 15 mg/kg once a week and irinotecan at a dose of 7.5 mg/kg one a week. Data are shown as tumor volume (mm^3) over days post-treatment.
Single cell suspensions of OMP-C8 colon tumor xenografts (50,000 cells) were injected subcutaneously into the flanks of 6-8 week old NOD/SCID mice. Tumors were allowed to grow for 21 days until they reached an average volume of 80 mm^3. The mice were randomized (n=8 per group) and treated with anti-DLL4 antibody 21M18, anti-VEGF antibody bevacizumab, anti-VEGF/anti-DLL4 bispecific antibodies 219R45-MB-21M18, 219R45-MB-21R75, 219R45-MB-21R79, 219R45-MB-21R83, or control antibody, either alone or in combination with irinotecan. Antibodies and irinotecan were dosed weekly by injection into the intraperitoneal cavity. Bevacizumab and bispecific antibodies 219R45-MB-21M18, 219R45-MB-21R75, 219R45-MB-21R79, and 219R45-MB-21R83 were dosed at 15 mg/kg, and irinotecan was dosed at 7.5 mg/kg. Tumor growth was monitored and tumor volumes were measured with electronic calipers at the indicated time points. Data are expressed as mean±S.E.M.
Following the treatment phase, tumor sections were prepared and analyzed by hematoxylin and eosin (H&E) staining. […] This is characteristic of highly necrotic tumor tissue.

[4] = system: xenograft tumor models; conditions: Hoey et al., 2009; U.S. Pat. No. 7,750,124; cited from earlier work

human DLL4-Fc, sequence (Q9NR61 27-522 limits assumed): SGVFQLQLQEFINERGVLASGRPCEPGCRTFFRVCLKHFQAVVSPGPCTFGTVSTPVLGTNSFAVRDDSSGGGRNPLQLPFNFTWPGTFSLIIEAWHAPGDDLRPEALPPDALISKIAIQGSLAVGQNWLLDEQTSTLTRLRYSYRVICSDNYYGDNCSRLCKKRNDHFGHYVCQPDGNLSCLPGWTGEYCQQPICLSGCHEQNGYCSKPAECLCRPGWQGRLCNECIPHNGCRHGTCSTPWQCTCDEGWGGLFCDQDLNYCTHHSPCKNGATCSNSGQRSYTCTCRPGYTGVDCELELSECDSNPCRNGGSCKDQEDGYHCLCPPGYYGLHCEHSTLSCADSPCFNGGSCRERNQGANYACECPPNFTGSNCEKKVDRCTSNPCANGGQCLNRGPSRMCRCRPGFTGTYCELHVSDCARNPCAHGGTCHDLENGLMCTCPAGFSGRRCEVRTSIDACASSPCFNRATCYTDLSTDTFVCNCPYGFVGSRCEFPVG

Molecule	inhibition of VEGF-induced HUVEC proliferation [1]	stronger binding to human DLL4 than 219R45-MB-21M18 [2]	inhibition of tumor growth in combination with irinotecan ([3]; antibody 15 mg/kg, irinotecan 7.5 mg/kg weekly ip)	H&E staining of tumor sections after treatment ([3]; in combination with irinotecan)	frequency of cancer stem cells in xenograft tumor models [4]	tumor growth in xenograft tumor models [4]
219R45-MB-21R79: anti-VEGF/anti-DLL4 monovalent/bispecific antibody, heavy chains SEQ ID NO:7 and 6, light chains SEQ ID NO:8 (antibody, 21R79 Heavy chain without predicted signal sequence; Light chain without predicted signal sequence) heavy 1: QVQLVQSGAEVKKPGASVKVSCKASGYTFTNYWMHWVRQAPGQGLEWMGDINPSNGRTSYKEKFKRRVTLSVDKSSSTAYMELSSLRSEDTAVYFCTIHYDDKYYPLMDYWGQGTLVTVSSASTKGPSVFPLAPCSRSTSESTAALGCLVKDYFPEPVTVSWNSGALTSGVHTFPAVLQSSGLYSLSSVVTVPSSNFGTQTYTCNVDHKPSNTKVDKTVERKCCVECPPCPAPPVAGPSVFLFPPKPKDTLMISRTPEVTCVVVDVSHEDPEVQFNWYVDGVEVHNAKTKPREEQFNSTFRVVSVLTVVHQDWLNGKEYKCKVSNKGLPAPIEKTISKTKGQPREPQVYTLPPSREKMTKNQVSLTCLVKGFYPSDIAVEWESNGQPENNYKTTPPMLKSDGSFFLYSKLTVDKSRWQQGNVFSCSVMHEALHNHYTQKSLSLSPGK heavy 2: QVQLVQSGAEVKKPGASVKISCKASGYSFTAYYIHWVKQAPGQGLEWIGYIANYNRATNYNQKFKGRVTFTTDTSTSTAYMELRSLRSDDTAVYYCARDYDYDVGMDYWGQGTLVTVSSASTKGPSVFPLAPCSRSTSESTAALGCLVKDYFPEPVTVSWNSGALTSGVHTFPAVLQSSGLYSLSSVVTVPSSNFGTQTYTCNVDHKPSNTKVDKTVERKCCVECPPCPAPPVAGPSVFLFPPKPKDTLMISRTPEVTCVVVDVSHEDPEVQFNWYVDGVEVHNAKTKPREEQFNSTFRVVSVLTVVHQDWLNGKEYKCKVSNKGLPAPIEKTISKTKGQPREPQVYTLPPSREEMTKNQVSLTCLVEGFYPSDIAVEWESNGQPENNYKTTPPMLDSDGSFFLYSELTVDKSRWQQGNVFSCSVMHEALHNHYTQKSLSLSPGK light: DIVMTQSPDSLAVSLGERATISCRASESVDNYGISFMKWFQQKPGQPPKLLIYAASNQGSGVPDRFSGSGSGTDFTLTISSLQAEDVAVYYCQQSKEVPWTFGGGTKVEIKRTVAAPSVIFPPSDEQLKSGTASVVCLLNNFYPREAKVQWKVDNALQSGNSQESVTEQDSKDSTYSLSSTLTLSKADYEKHKVYACEVTHQGLSSPVTKSFNRGEC	inhibited HUVEC proliferation	approximately 30 fold	–	–	–	–
219R45-MB-21M18: anti-VEGF/anti-DLL4 monovalent/bispecific antibody, heavy chains SEQ ID NO:7 and 5, light chains SEQ ID NO:8 (antibody, 21R79 Heavy chain without predicted signal sequence; 21M18 Heavy chain without predicted signal sequence; Light chain without predicted signal sequence) heavy 1: QVQLVQSGAEVKKPGASVKVSCKASGYTFTNYWMHWVRQAPGQGLEWMGDINPSNGRTSYKEKFKRRVTLSVDKSSSTAYMELSSLRSEDTAVYFCTIHYDDKYYPLMDYWGQGTLVTVSSASTKGPSVFPLAPCSRSTSESTAALGCLVKDYFPEPVTVSWNSGALTSGVHTFPAVLQSSGLYSLSSVVTVPSSNFGTQTYTCNVDHKPSNTKVDKTVERKCCVECPPCPAPPVAGPSVFLFPPKPKDTLMISRTPEVTCVVVDVSHEDPEVQFNWYVDGVEVHNAKTKPREEQFNSTFRVVSVLTVVHQDWLNGKEYKCKVSNKGLPAPIEKTISKTKGQPREPQVYTLPPSREKMTKNQVSLTCLVKGFYPSDIAVEWESNGQPENNYKTTPPMLKSDGSFFLYSKLTVDKSRWQQGNVFSCSVMHEALHNHYTQKSLSLSPGK heavy 2: QVQLVQSGAEVKKPGASVKISCKASGYSFTAYYIHWVKQAPGQGLEWIGYISSYNGATNYNQKFKGRVTFTTDTSTSTAYMELRSLRSDDTAVYYCARDYDYDVGMDYWGQGTLVTVSSASTKGPSVFPLAPCSRSTSESTAALGCLVKDYFPEPVTVSWNSGALTSGVHTFPAVLQSSGLYSLSSVVTVPSSNFGTQTYTCNVDHKPSNTKVDKTVERKCCVECPPCPAPPVAGPSVFLFPPKPKDTLMISRTPEVTCVVVDVSHEDPEVQFNWYVDGVEVHNAKTKPREEQFNSTFRVVSVLTVVHQDWLNGKEYKCKVSNKGLPAPIEKTISKTKGQPREPQVYTLPPSREEMTKNQVSLTCLVEGFYPSDIAVEWESNGQPENNYKTTPPMLDSDGSFFLYSELTVDKSRWQQGNVFSCSVMHEALHNHYTQKSLSLSPGK light: DIVMTQSPDSLAVSLGERATISCRASESVDNYGISFMKWFQQKPGQPPKLLIYAASNQGSGVPDRFSGSGSGTDFTLTISSLQAEDVAVYYCQQSKEVPWTFGGGTKVEIKRTVAAPSVIFPPSDEQLKSGTASVVCLLNNFYPREAKVQWKVDNALQSGNSQESVTEQDSKDSTYSLSSTLTLSKADYEKHKVYACEVTHQGLSSPVTKSFNRGEC	inhibited HUVEC proliferation	–	greatest inhibition of tumor growth	dark pink staining regions providing evidence of extensive calcification	–	–
21M18: anti-DLL4 antibody, parental antibody (Hoey et al., 2009; U.S. Pat. No. 7,750,124) (antibody, V domains shown) VH: QVQLVQSGAEVKKPGASVKISCKASGYSFTAYYIHWVKQAPGQGLEWIGYISSYNGATNYNQKFKGRVTFTTDTSTSTAYMELRSLRSDDTAVYYCARDYDYDVGMDYWGQGTLVTVSS VL: DIVMTQSPDSLAVSLGERATISCRASESVDNYGISFMKWFQQKPGQPPKLLIYAASNQGSGVPDRFSGSGSGTDFTLTISSLQAEDVAVYYCQQSKEVPWTFGGGTKVEIK	–	–	–	–	reduce the frequency of cancer stem cells	inhibit tumor growth
